# Test: soluble on expression in E. coli; label from the status in PepcDB or PDB records
row,Sequence,soluble on expression in E. coli
1,MPKRRLQTTLSEEAFRIIEKFKPDYGGINEVIEAALKLLNREDRNLSEDDILLIRLIRDLDFTGCGRSQYMHLICGDIEKAVKESMMETAVEWFLKKPFAEIELEEFLETVKRGWKVLNRVDYVEITKGDGWIQIFCEHTMRRREVSEFLAMHILNIYEKYYKGEWDVVKSISTNGFTLKFYRRV,not soluble
2,MPKVGMPEIRKPQLVKATMSVIDRVGLHAASISLISKEAGVSTGIINHYFGGKHGLLEETMREILRQLSSTITGKLRALPADAHHQRINAIIDGNFVGYQAENKVAKTWLAFWSYSMHDEQLKRLQRVNERRLLSHLRRELKALLSAEQAELVAHGIASLIDGIWLRGTLNPQGIEADKARIIINDYLDKQLTFYSHKI,not soluble
3,MPLEASELKPTAGPLEASELKPTAGPLEASELKPTAGPLEASELKPTAGPLEASELKPTAGPLEASELKPTAGPLEASELKPTAGMIVVYVFVYAFKAVKQYFYPSDNLKVLMHKFTDMVNFTINIMIEKNLTSRNSVSNEVYHKLKEYEIPSYYYIEAINKAVALVKTYRKRLKKKQKATVPHVEKPMLSTYYGFKIVGGNIMIPIANREYESIPLNAYVRDATSMVKVHSFALSAYTLSLTIGRDVDAIECTTTVGVDRNLRNITVGNEFHHEIYDLSNIVEIKQRYRKKESHFHRNDRRIREKILSKYGKRERNRVKQIMHETSKAIVSNASTKKEMIVLENIIGINQITKKGDGKGKDYRFLLKNAFPYGMLASQVMYKASWEGLPVIELTRKETRNTSRMCSVCGSLTRIEHGRILKCDSCGLEIDRDVNACINIAFRYRTCLKRSHKGLPGEAVKQSKDVEQMAGSQISMDILEHHHHHH,not soluble
4,MPLELWIVFNLFGRKSPRSNIKPARGPGETVREADLRYLQEWVSTHAVVEAFVEPETIVNEMSVVLVDITGEFTRRRIGGPKGIDVISSTLGVPVYDVEETGYPQRMREKIERDRILRKREEQRERREKLQRERGESQ,not soluble
5,MPLIAGIDIGNATTEVALASDYPQARAFVASGIVATTGMKGTRDNIAGTLAALEQALAKTPWSMSDVSRIYLNEAAPVIGDVAMETITETIITESTMIGHNPQTPGGVGVGVGTTIALGRLATLPAAQYAEGWIVLIDDAVDFLDAVWWLNEALDRGINVVAAILKKDDGVLVNNRLRKTLPVVDEVTLLEQVPEGVMAAVEVAAPGQVVRILSNPYGIATFFGLSPEETQAIVPIARALIGNRSAVVLKTPQGDVQSRVIPAGNLYISGEKRRGEADVAEGAEAIMQAMSACAPVRDIRGEPGTHAGGMLERVRKVMASLTGHEMSAIYIQDLLAVDTFIPRKVQGGMAGECAMENAVGMAAMVKADRLQMQVIARELSARLQTEVVVGGVEANMAIAGALTTPGCAAPLAILDLGAGSTDAAIVNAEGQITAVHLAGAGNMVSLLIKTELGLEDLSLAEAIKKYPLAKVESLFSIRHENGAVEFFREALSPAVFAKVVYIKEGELVPIDNASPLEKIRLVRRQAKEKVFVTNCLRALRQVSPGGSIRDIAFVVLVGGSSLDFEIPQLITEALSHYGVVAGQGNIRGTEGPRNAVATGLLLAGQAN,soluble
6,MPLIFAPFAADLARRAAALMPIDVLEIAAGTGAVTREMIPRLLPAAHYVVTDLNQPMLDFAAAQQAPDNRIKWRQADAQLLPFENAVFDLVFCQFGAMFFNDRLSAYREAKRVLKPGGHYLFNVWDRIEENHFADDVTNALAGLFPDDPPRFMARTPHGYHDTVLIRRELENAGFSRVTVETVAAQSRAPSPRIPAVAYCQGTVLRTEIEARAPGKLNAATDCAAAAIEARHGKGEVAAKIKAHVILAAV,not soluble
7,MPLKAYRPPEDPGLWDTYLEWLERALKVAEAHPTTLEYLAHPKRLVTLSLPVVMDDGKVRIFQGYRVVHDIARGPAKGGVRLDPGVTLGQTAGLAAWMTLKAAVYDLPFGGAAGGIAVDPKGLSPQELERLVRRYTAELVGLIGPDSDILGPDLGADQQVMAWIMDTYSMTVGSTVPGVVTGKPHALGGSEGRDDAAGLGALLVLEALAKRRGLDLRGARVVVQGLGQVGAAVALHAERLGMRVVAVATSMGGMYAPEGLDVAEVLSTYEATGFLPRLDLAPEEVFGLEAEVLVLAAREGALDGDRARQVQAQAVVKVANFGLTPEAEAYLLGKGALVVPDLLSGGGGLLASYLEWVQDLNMFFWSPEEVRERFETRVARVVDAVCRRAERGGLDLRMGALALALERLDEATRLRGVYP,soluble
8,MPLKPGANPYKILHLEKGCTDKEIQKAYRAQCLKWHPDKNLDNKEEAERRFIEAKEAFDFLYDKEKREEYDNREERIRMAQEHHSKRMAEADGKRKKLIEDLEKREKEFSNGGKRSADGSTPMTAAQQAKKKKTDQRNFKEEIEAIRRQLEKEVNEEVKQKATLMKTEREKHQKSQEKLTPRLLLKWKTSEGLDYSEDDIRKLFSTFGIISHISSAIEKKDRRKRILEFESGANAWGAELETGNAPMPEITCEWLQPPVETVKKASDEPVKSTNTGANNLEHMSLDDLEAQIMGGF,not soluble
9,MPMTDLPSAVTNERTEQTNTTNEQQESKGFDYLIVGAGFAGSVLAERLASSGQRVLIVDRRPHIGGNAYDCYDDAGVLIHPYGPHIFHTNSKDVFEYLSRFTEWRPYQHRVLASVDGQLLPIPINLDTVNRLYGLNLTSFQVEEFFASVAEKVEQVRTSEDVVVSKVGRDLYNKFFRGYTRKQWGLDPSELDASVTARVPTRTNRDNRYFADTYQAMPLHGYTRMFQNMLSSPNIKVMLNTDYREIADFIPFQHMIYTGPVDAFFDFCYGKLPYRSLEFRHETHDTEQLLPTGTVNYPNDYAYTRVSEFKHITGQRHHQTSVVYEYPRAEGDPYYPVPRPENAELYKKYEALADAAQDVTFVGRLATYRYYNMDQVVAQALATFRRLQGQPEQGNAE,soluble
10,MPNDVDNTKITLSLGKCGYLPQDVRTMTKFDKNTKQIRTFAFVEFSNRETAEQWMTDYEGWLTLDDGRTLAVEYAKGDPAAGSGNKGDDWICAHCSMNNFVKRQTCFKCEISKDQSMELEKLGAHMVGMTPCDTLLIRGLPDGINNSLIFDSLGALVCLSSISMIKLSESKRFAYLQMKSADEAKMLLNLTYKSPIRIKDKDVQVSWCRDSMSKLIQQQMTMLTAGPGKNSVATGSLAQGNMTGAEIAAAALSKANAVRQASQQVGQIMTGLPAPAANMIPPNFSVPPPNLSVPPPMQATQPEHQNGVIGMTQTPKGLLPRYLPPNPLTFAHDPNLGYYVDPITKFCYDSATGYYFNNATSQWCNWDLTHHTYFPVETPAVINSADPEEEKMKKNEEGPKTAQDLVKDMAKWAKRQEKDKKKVQISIKGKETKGIELKNVFSNEKQKRIAQTAALFDDDEEEDQEEEVRGRRSEEPSTSSSFSSVPLAPRKSTLQDVRDAMERALYDETKKTCMLCKRAFSDVEVLRKHVEKSDLHRNNLEAKRAEWGRETAAKLQEEEEDASAPDLPKIVYRDRAKERRRQFGIDSTGYAFDVMGGPPGPTSVRHEETIRKVSEEASKRPLDESNIGNRLLKSMGWKEGQGVGKHAQGIVNPIEAERFVQGAGLGAAGSKMRHGAEASHKEKTRQALYSRYHDA,not soluble
11,MPNQVLFCITKMRYEEKRIYHYLEESGLSIKIMLDSSNLDEVVAHNSDYCLCIVRVMSQHRAFRIAEYMEALGIPTLNSSRAIQICADKAIQALILANRDVIKQPHFSILRNYEDLSNFNGKMVVKPVSSSWGRGISLIENEDALTTWKISHQELDIQNQNLPYLIQEFIDKPNYDVRIVIINTKPVVAFKRVSANNWKTNTHLGATVVPIVIDDSINKIVTEIIKVVGPGIYGLDLMKNRQNEWIFCEINQNPEFAHSWKIHHVDVAEKIAQYVSSKVKVGQKNASTHLEHHHHHH,not soluble
12,MPPAGQDDLDFLKYAMESYVADVNADIGKTTIVFTLREKAGALAETLKLFQAHDVNLSHIESRPSKTHEGCYEVLVEFAEAEDHRKIEGVIEHFQQKAEKKVLVQDWNTKNKQNKDSVPWFPQKINDIDQFANRILSYGAELDADHPGFKDMTYRERRKFFADIAFNFKHGDKIPTITYTDEEIATWRTVYNELTVMYPKNACQEFNYIFPLLQQNCGFGPDRIPQLQDVSDFLKDCTGYTIRPVAGLLSSRDFLAGLAFRVFHSTQYIRHHSAPKYTPEPDICHELLGHVPLFADVEFAQFSQEIGLASLGAPDDVIEKLATLYWFTIEFGICQQDGEKKAYGAGLLSSFGELQYALSDKPEVVDFDPAVCCVTKYPITEYQPKYFLAESFASAKNKLKSWAATINRPFQIRYNAYTQRVEILDKVAALQRLARDIRSDISTLEEALGKVNNLKMK,not soluble
13,MPPKKNVVEEKPALIGRLGTNLKVGILGLPNVGKSTFFNVLTKSEAQAENFPFCTIDPNESRVAVQDDRFDWLVNHYKPASKVPAFLNVTDIAGLVKGASEGQGLGNAFLSHVSACDALFHLCRAFDDDDVTHVEGEVDPVRDLEIISNELFAKDLQFIDGPLDKVEKLFTRANDKTKKIEYDTLVRVKKCLEEKKPVRQELWNEKEIEILNKHLFLTAKPIVYLVNLSEKDYIRKKNKWLPKIKAWIDTNDAGAVLIPFSGAFELKLLDMPEDERQKYLKEQGVTSNLDKIVHTGYKALQLEYFFTSGEDEVKAWTIQVGTPAPKAAGRIHTDFEKGFIMAEVMKVADLIELGDEAKCKAGGKYRQQGKTYIVQDGDVIFFKFNAGAGLQAKKK,not soluble
14,MPPKPKKSTGAKKKVSKLNKRPSKISVVSVNERSKNERSVMQSIEQEEATNNEIVPTPKKTTAQIAQQPTPTLPQIIAKQEPEVAMKTMMLPPPSDPPPPPPPVAPHQPPPQLATSAQPPQPPVINSQLPRMSPAPAIPPSMAQPLLQSPSPGADIAIRRPSKEKTDEKSVDETGGSDKKKRTEVICSWIRLVLQNGVAGLKKEYRDSPNEAPEDIATSFLGNPTRNRYRNIPCCDITRVKLTDDPHFYIHANLVSSGPNPRRFICTQAPLNGTIEEFWKMIIVTGIEYIVMLCELVEKGKPKSAEYFPSQIGQTTKIGRLCTVTKESRVDIDKTLVMSTMRISKPGDNAVVKIVKHIHWRNWPDHGVPDNFLSPFRLLTVVKNCTKPIVVHCSAGVGRTGTLALILIILESICLPDFIGVPRLLAKLREERFRAVQTEMQYLYAHRCVLEYLALKKYVQSREDFAKFAKDYEQALAMCPKEA,not soluble
15,MPPKTRKTKKEDVEEEAVEEILEETKPAKLPESDESYSRKVVISKEGNLPNSRIIKLRHPKEGLALFRISETCFDEIFAVNDGHRSFFYGESVIENGTIHIFTPYNLVFICLPYLQKTAGKFVEIGEILVDDQVDGIKELAENERILKALEAVSDVKDVLDVKLYRLNDQKMLDWMRRKFDSLKKLLESDAHKSLLSCPEAFDRYVFTFLSEYLSSDLALIVKDHLNIQDATVSENIDMSMKRKAVDDDELEDKKQPVAKKPKESVQSKKLQAASKGTKSISSFFGKKSA,soluble
16,MPPQKSKALWYAQLELGFRFDGQRTIMNHRKHHGPVRVQKMLWPEKTGVCHAIIVHPPAGIAGGDHLTFQVSTERKAHAVVTTPGAGKWYKTNGKQAFQHIYLNIANDSTLEWLPQETMLFDAAYAQSETIIHLDQTASFMGWDMLVLGRQARLETFEQGCYANRFKLYRNHKLLVADTLRFKGKDRWLSSCLGMNGHAVMGSFWAVAPEKYRATLYLEQHIELIRELMMRMDVPVTLTLLDDVVCARFLGDDVRACHDAFAAIRARLRRYWFDLDEEFPRIWRTLEHHHHHH,not soluble
17,MPQSKFRLCSTKGTSMFSHIMIGSNDIEKSKVFYDAILSVLGYPAGVIDAKGRCLYINQDGVLGITKPVNGEPATHGNGMTIGFKVSSPELVEAWHAAGLANGGVACEDPPGIRTSGQRKMYLAYLRDPAGNKLCATHHMSTGN,not soluble
18,MPRINSPHITGNYPSTPFIFYIPTSGQRPMQWSAEKLPEGLELDSKTGIISGVMTSKGDYTVTLKAENALGVSVKQLVIRIGDELLLEHHHHHH,not soluble
